In article PMC1287507, “Ankyrin-B Coordinates the Na/K ATPase, Na/Ca Exchanger, and InsP3 Receptor in a Cardiac T-Tubule/SR Microdomain” (PLoS Biology, 2005):
Each block holds one molecule with its values, some of them ahead of it.

Key:
[1] = target: 220-kDa ankyrin-B (endogenous, mouse) (mouse (endogenous in mouse heart and brain)); assay: co-IP; detergent-soluble lysates of ankyrin-B+/- mouse heart, doubled amount of input lysate, compared with wild-type heart
[2] = target: InsP3R purified from bovine brain cerebellum (bovine, UniProt Q9TU34 1-2709, ^125I-labeled in the saturation binding; biotinylated with NHS-LC-biotin in the reconstitution); assay: radioligand binding; saturation binding: increasing concentrations of ^125I-labeled protein with glutathione Sepharose-immobilized GST-ankyrin-B membrane-binding domain, 2 h at 25 °C; binding to GST beads subtracted; Scatchard analysis; conditions: both partners purified

Molecule: inositol 1,4,5-trisphosphate receptor (endogenous, mouse) (from UniProt P11881 1-2749)
- loss of co-immunoprecipitation in ankyrin-B+/- heart against wild-type heart [1]: > 60%

B1: GST-ankyrin-B membrane-binding domain (domain or fragment)
chain: KSDSNASFLRAARAGNLDKVVEYLKGGIDINTCNQNGLNALHLAAKEGHVGLVQELLGRGSSVDSATKKGNTALHIASLAGQAEVVKVLVKEGANINAQSQNGFTPLYMAAQENHIDVVKYLLENGANQSTATEDGFTPLAVALQQGHNQAVAILLENDTKGKVRLPALHIAARKDDTKSAALLLQNDHNADVQSKMMVNRTTESGFTPLHIAAHYGNVNVATLLLNRGAAVDFTARNGITPLHVASKRGNTNMVKLLLDRGGQIDAKTRDGLTPLHCAARSGHDQVVELLLERGAPLLARTKNGLSPLHMAAQGDHVECVKHLLQHKAPVDDVTLDYLTALHVAAHCGHYRVTKLLLDKRANPNARALNGFTPLHIACKKNRIKVMELLVKYGASIQAITESGLTPIHVAAFMGHLNIVLLLLQNGASPDVTNIRGETALHMAARAGQVEVVRCLLRNGALVDARAREEQTPLHIASRLGKTEIVQLLLQHMAHPDAATTNGYTPLHISAREGQVDVASVLLEAGAAHSLATKKGFTPLHVAAKYGSLDVAKLLLQRRAAADSAGKNGLTPLHVAAHYDNQKVALLLLEKGASPHATAKNGYTPLHIAAKKNQMQIASTLLNYGAETNIVTKQGVTPLHLASQEGHTDMVTLLLDKGANIHMSTKSGLTSLHLAAQEDKVNVADILTKHGADQDAHTKLGYTPLIVACHYGNVKMVNFLLKQGANVNAKTKNGYTPLHQAAQQGHTHIINVLLQHGAKPNATTANGNTALAIAKRLGYISVVDTLKVVTEEVTTTTTTITEKHKLNVPETMTEVLDVSDEEGDDTMTGDGGEYLRPEDLKELGDD
- Kd [2]: 3 nM

Other lines, results leading:

- loss of co-immunoprecipitation in ankyrin-B+/- heart against wild-type heart [1]: > 60%
Molecule: Na/Ca exchanger 1 (endogenous, mouse) (from UniProt P70414 33-970) (natural protein)

- loss of co-immunoprecipitation in ankyrin-B+/- heart against wild-type heart [1]: > 60%
Molecule: Na/K ATPase (endogenous, mouse; isoform not told) (from UniProt Q8VDN2 1-1023) (natural protein)
